According to the Human Domainome abundance scans (Beltran et al. 2025):
± gives the uncertainty stated by the source.

B1: Peripheral plasma membrane protein CASK, residues 488 to 569; numbered along this chain, O14936 (parent)
chain: VRLVQFQKNTDEPMGITLKMNELNHCIVARIMHGGMIHRQGTLHVGDEIREINGISVANQTVEQLQKMLREMRGSITFKIVP

Variants of: B1
Experiment: abundance fitness (aPCA) (normalised: wild type 0, dead -1); higher = more abundant; growth selection in yeast, the domain comes from the species named
Details: Homo sapiens

Going from VRLVQFQKNTDECMGITLKMNELNHCIVARIMHGGMIHRQGTLHVGDEIREINGISVANQTVEQLQKMLREMRGSITFKIVP to VRLVQFQKNTDERMGITLKMNELNHCIVARIMHGGMIHRQGTLHVGDEIREINGISVANQTVEQLQKMLREMRGSITFKIVP, the abundance fitness falls from 0.024 ± 0.06 to -0.183 ± 0.046.

First: VRLVQFQKNTDEYMGITLKMNELNHCIVARIMHGGMIHRQGTLHVGDEIREINGISVANQTVEQLQKMLREMRGSITFKIVP
Second: VRLVQFQKNTDEGMGITLKMNELNHCIVARIMHGGMIHRQGTLHVGDEIREINGISVANQTVEQLQKMLREMRGSITFKIVP
The abundance fitness of the first is lower: -0.154 ± 0.056 for the first, -0.024 ± 0.054 for the second.

VRLVQFQKNTDEWMGITLKMNELNHCIVARIMHGGMIHRQGTLHVGDEIREINGISVANQTVEQLQKMLREMRGSITFKIVP and VRLVQFQKNTDENMGITLKMNELNHCIVARIMHGGMIHRQGTLHVGDEIREINGISVANQTVEQLQKMLREMRGSITFKIVP are within error of each other in abundance fitness: -0.102 ± 0.098 for the first, -0.021 ± 0.042 for the second.

VRLVQFQKNTDEKMGITLKMNELNHCIVARIMHGGMIHRQGTLHVGDEIREINGISVANQTVEQLQKMLREMRGSITFKIVP and VRLVQFQKNTDEAMGITLKMNELNHCIVARIMHGGMIHRQGTLHVGDEIREINGISVANQTVEQLQKMLREMRGSITFKIVP are within error of each other in abundance fitness: 0.055 ± 0.07 for the first, -0.065 ± 0.07 for the second.

VRLVQFQKNTDEIMGITLKMNELNHCIVARIMHGGMIHRQGTLHVGDEIREINGISVANQTVEQLQKMLREMRGSITFKIVP and VRLVQFQKNTDEQMGITLKMNELNHCIVARIMHGGMIHRQGTLHVGDEIREINGISVANQTVEQLQKMLREMRGSITFKIVP are within error of each other in abundance fitness: -0.154 ± 0.054 for the first, -0.183 ± 0.078 for the second.

VRLVQFQKNTDEEMGITLKMNELNHCIVARIMHGGMIHRQGTLHVGDEIREINGISVANQTVEQLQKMLREMRGSITFKIVP and VRLVQFQKNTDEHMGITLKMNELNHCIVARIMHGGMIHRQGTLHVGDEIREINGISVANQTVEQLQKMLREMRGSITFKIVP are within error of each other in abundance fitness: -0.119 ± 0.091 for the first, -0.054 ± 0.051 for the second.

VRLVQFQKNTDESMGITLKMNELNHCIVARIMHGGMIHRQGTLHVGDEIREINGISVANQTVEQLQKMLREMRGSITFKIVP and VRLVQFQKNTDEMMGITLKMNELNHCIVARIMHGGMIHRQGTLHVGDEIREINGISVANQTVEQLQKMLREMRGSITFKIVP are within error of each other in abundance fitness: -0.036 ± 0.045 for the first, -0.1 ± 0.098 for the second.

VRLVQFQKNTDEVMGITLKMNELNHCIVARIMHGGMIHRQGTLHVGDEIREINGISVANQTVEQLQKMLREMRGSITFKIVP and VRLVQFQKNTDETMGITLKMNELNHCIVARIMHGGMIHRQGTLHVGDEIREINGISVANQTVEQLQKMLREMRGSITFKIVP are within error of each other in abundance fitness: -0.046 ± 0.052 for the first, -0.041 ± 0.052 for the second.

VRLVQFQKNTDELMGITLKMNELNHCIVARIMHGGMIHRQGTLHVGDEIREINGISVANQTVEQLQKMLREMRGSITFKIVP and VRLVQFQKNTDEFMGITLKMNELNHCIVARIMHGGMIHRQGTLHVGDEIREINGISVANQTVEQLQKMLREMRGSITFKIVP are within error of each other in abundance fitness: -0.125 ± 0.04 for the first, -0.126 ± 0.059 for the second.

Compared with VRLVQFQKNTDEDMGITLKMNELNHCIVARIMHGGMIHRQGTLHVGDEIREINGISVANQTVEQLQKMLREMRGSITFKIVP, VRLVQFQKNTDYPMGITLKMNELNHCIVARIMHGGMIHRQGTLHVGDEIREINGISVANQTVEQLQKMLREMRGSITFKIVP is lower in abundance fitness: -0.028 ± 0.085 for the first, -0.237 ± 0.07 for the second.

VRLVQFQKNTDSPMGITLKMNELNHCIVARIMHGGMIHRQGTLHVGDEIREINGISVANQTVEQLQKMLREMRGSITFKIVP and VRLVQFQKNTDGPMGITLKMNELNHCIVARIMHGGMIHRQGTLHVGDEIREINGISVANQTVEQLQKMLREMRGSITFKIVP are within error of each other in abundance fitness: -0.089 ± 0.037 for the first, -0.059 ± 0.024 for the second.

VRLVQFQKNTDQPMGITLKMNELNHCIVARIMHGGMIHRQGTLHVGDEIREINGISVANQTVEQLQKMLREMRGSITFKIVP and VRLVQFQKNTDHPMGITLKMNELNHCIVARIMHGGMIHRQGTLHVGDEIREINGISVANQTVEQLQKMLREMRGSITFKIVP are within error of each other in abundance fitness: -0.063 ± 0.049 for the first, -0.154 ± 0.07 for the second.

VRLVQFQKNTDLPMGITLKMNELNHCIVARIMHGGMIHRQGTLHVGDEIREINGISVANQTVEQLQKMLREMRGSITFKIVP and VRLVQFQKNTDRPMGITLKMNELNHCIVARIMHGGMIHRQGTLHVGDEIREINGISVANQTVEQLQKMLREMRGSITFKIVP are within error of each other in abundance fitness: -0.131 ± 0.033 for the first, -0.143 ± 0.027 for the second.

First: VRLVQFQKNTDFPMGITLKMNELNHCIVARIMHGGMIHRQGTLHVGDEIREINGISVANQTVEQLQKMLREMRGSITFKIVP
Second: VRLVQFQKNTDDPMGITLKMNELNHCIVARIMHGGMIHRQGTLHVGDEIREINGISVANQTVEQLQKMLREMRGSITFKIVP
The abundance fitness of the first is lower: -0.231 ± 0.076 for the first, -0.101 ± 0.05 for the second.

First: VRLVQFQKNTDNPMGITLKMNELNHCIVARIMHGGMIHRQGTLHVGDEIREINGISVANQTVEQLQKMLREMRGSITFKIVP
Second: VRLVQFQKNTDPPMGITLKMNELNHCIVARIMHGGMIHRQGTLHVGDEIREINGISVANQTVEQLQKMLREMRGSITFKIVP
The abundance fitness of the first is higher: -0.277 ± 0.066 for the first, -0.757 ± 0.15 for the second.

VRLVQFQKNTDMPMGITLKMNELNHCIVARIMHGGMIHRQGTLHVGDEIREINGISVANQTVEQLQKMLREMRGSITFKIVP and VRLVQFQKNTDAPMGITLKMNELNHCIVARIMHGGMIHRQGTLHVGDEIREINGISVANQTVEQLQKMLREMRGSITFKIVP are within error of each other in abundance fitness: -0.016 ± 0.04 for the first, -0.08 ± 0.031 for the second.

VRLVQFQKNTDVPMGITLKMNELNHCIVARIMHGGMIHRQGTLHVGDEIREINGISVANQTVEQLQKMLREMRGSITFKIVP and VRLVQFQKNTDIPMGITLKMNELNHCIVARIMHGGMIHRQGTLHVGDEIREINGISVANQTVEQLQKMLREMRGSITFKIVP are within error of each other in abundance fitness: -0.139 ± 0.029 for the first, -0.09 ± 0.094 for the second.
